Assay results from patent US20240158515A1 (Regeneron, published 2024).
Residue numbers refer to the chain shown, from its start.

Legend:
[1] = molecular target: full length human FGFR3b on BaF3 cells (BAF3/FGFR3b, ACL11991) (human, UniProt P22607 23-808); experiment: cell-based or functional assay
[2] = molecular target: T1, human FGFR3b expressed with a C-terminal myc-myc-hexahistidine tag (hFGFR3b.mmH) (human); experiment: SPR Biacore, mAb captured on anti-hFc, 25C
T1 construct: also called REGN3152; monomeric human FGFR3b
T1 chain: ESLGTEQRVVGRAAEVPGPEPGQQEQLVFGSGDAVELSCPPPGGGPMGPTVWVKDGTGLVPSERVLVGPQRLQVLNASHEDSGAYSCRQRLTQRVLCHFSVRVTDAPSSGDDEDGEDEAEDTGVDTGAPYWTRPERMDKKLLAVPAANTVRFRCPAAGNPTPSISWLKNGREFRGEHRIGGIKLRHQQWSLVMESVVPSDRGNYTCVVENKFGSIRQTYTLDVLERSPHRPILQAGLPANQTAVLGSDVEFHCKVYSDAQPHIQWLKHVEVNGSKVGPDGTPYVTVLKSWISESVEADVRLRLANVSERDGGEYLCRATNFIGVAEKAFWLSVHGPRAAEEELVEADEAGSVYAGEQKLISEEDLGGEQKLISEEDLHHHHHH

[3] = molecular target: T2, human FGFR3c expressed with a C-terminal myc-myc-hexahistidine tag (hFGFR3c.mmH) (human, UniProt P22607 23-375); experiment: SPR Biacore, mAb captured on anti-hFc, 25C
T2 construct: also called REGN3155; monomeric human FGFR3c

hFGFR3c-hFc [4] = molecular target: T3, hFGFR3c-hFc (human, UniProt P22607 23-375); experiment: competition ELISA: 7 nM hFGFR3c-hFc binding to plate-coated hFGF basic
T3 construct: range 23-375; Bought (R&D Systems); also called dimeric human FGFR3c; R&D Systems 766-FR-050; not shown: Fc portion of human IgG1, amino acids Pro100-Lys330
T3 sequence (looked up): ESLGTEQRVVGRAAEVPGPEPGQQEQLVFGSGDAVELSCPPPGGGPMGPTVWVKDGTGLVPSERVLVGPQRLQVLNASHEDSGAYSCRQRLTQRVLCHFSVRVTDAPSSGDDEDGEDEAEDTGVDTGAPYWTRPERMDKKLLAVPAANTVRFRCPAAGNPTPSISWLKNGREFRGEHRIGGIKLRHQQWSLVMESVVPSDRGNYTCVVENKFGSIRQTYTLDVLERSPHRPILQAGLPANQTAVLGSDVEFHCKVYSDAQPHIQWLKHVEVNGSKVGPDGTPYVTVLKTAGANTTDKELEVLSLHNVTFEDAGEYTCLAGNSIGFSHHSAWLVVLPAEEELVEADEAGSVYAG
Procedure: (§1) The fixed concentration of hFGFR3b or hFGFR3c proteins was selected to be near the concentration that generated 50% of the maximal binding (EC₅₀ value) to plate-adhered hFGF acidic or hFGF basic protein. […] The plates were then developed using TMB substrate solution (BD Biosciences) according to the manufacturer's recommended procedure and absorbance at 450 nm was measured on a Victor X5 plate reader.
(§2) Binding data were analyzed using a sigmoidal (four-parameter logistic) dose-response model using GraphPad Prism software. […] Percent blocking of FGFR3 antibody at a given concentration was calculated based on the formula shown below.
(§3) The ability of anti-FGFR3 antibodies to block human FGFR3b binding to hFGF acidic protein or hFGFR3c binding to hFGF acidic or hFGF basic proteins was evaluated using a sandwich ELISA-based blocking assay.

[5] = molecular target: T4, human FGFR3b expressed with a C-terminal murine Fc tag (hFGFR3b.mFc) (human); experiment: competition ELISA: 4 nM hFGFR3b-mFc binding to plate-coated hFGF acidic
T4 construct: called dimeric; also called REGN3153; dimeric human FGFR3b
T4 chain: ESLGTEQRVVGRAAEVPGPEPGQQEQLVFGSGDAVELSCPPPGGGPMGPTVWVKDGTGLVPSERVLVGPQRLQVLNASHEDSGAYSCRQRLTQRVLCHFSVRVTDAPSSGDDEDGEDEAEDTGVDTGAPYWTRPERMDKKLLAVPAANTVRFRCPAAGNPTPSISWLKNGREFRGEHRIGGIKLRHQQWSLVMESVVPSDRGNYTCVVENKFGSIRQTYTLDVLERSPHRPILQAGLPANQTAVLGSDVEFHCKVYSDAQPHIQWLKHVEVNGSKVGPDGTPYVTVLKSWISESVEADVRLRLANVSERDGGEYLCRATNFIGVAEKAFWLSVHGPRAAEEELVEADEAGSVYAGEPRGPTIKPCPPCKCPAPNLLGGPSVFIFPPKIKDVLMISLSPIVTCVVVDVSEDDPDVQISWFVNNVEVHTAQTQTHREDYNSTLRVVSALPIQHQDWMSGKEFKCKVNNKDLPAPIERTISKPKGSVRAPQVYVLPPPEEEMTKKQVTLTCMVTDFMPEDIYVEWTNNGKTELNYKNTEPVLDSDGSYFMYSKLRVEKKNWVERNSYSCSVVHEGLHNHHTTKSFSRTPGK

hFGFR3c-hFc [6] = molecular target: T3, hFGFR3c-hFc; experiment: competition ELISA: 0.4 nM hFGFR3c-hFc binding to plate-coated hFGF acidic
Procedure: as §1, §2, §3

[7] = molecular target: T5, cynomolgus FGFR3b expressed with a C-terminal myc-myc-hexahistidine tag (mfFGFR3b.mmH) (cynomolgus); experiment: SPR Biacore, mAb captured on anti-hFc, 25C
T5 construct: also called REGN3521; mf FGFR3b ecto (R357G)(E23-G377;R357G).mmH
T5 chain: T1 chain with A13V, P17S, G22S, T57A, R94L, R171K

[8] = molecular target: T6, murine FGFR3b expressed with a C-terminal myc-myc-hexahistidine tag (mFGFR3b.mmH) (murine); experiment: SPR Biacore, mAb captured on anti-hFc, 25C
T6 construct: also called REGN3215; monomeric murine FGFR3b
T6 chain: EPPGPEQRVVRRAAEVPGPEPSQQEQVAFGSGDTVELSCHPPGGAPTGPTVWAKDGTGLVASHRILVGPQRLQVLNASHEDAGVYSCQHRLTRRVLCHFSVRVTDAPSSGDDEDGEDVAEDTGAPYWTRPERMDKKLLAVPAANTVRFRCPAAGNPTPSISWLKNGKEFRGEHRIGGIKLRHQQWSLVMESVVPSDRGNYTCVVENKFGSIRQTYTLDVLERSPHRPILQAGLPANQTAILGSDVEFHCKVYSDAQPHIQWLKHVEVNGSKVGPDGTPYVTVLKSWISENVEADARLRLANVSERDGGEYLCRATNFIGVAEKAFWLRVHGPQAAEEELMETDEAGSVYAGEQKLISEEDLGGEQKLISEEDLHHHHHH

[9] = molecular target: T4, human FGFR3b expressed with a …; experiment: SPR Biacore, mAb captured on anti-hFc, 25C
[10] = molecular target: T6, murine FGFR3b expressed with a …; experiment: SPR Biacore, mAb captured on anti-hFc, 25C; row marked NB

B1: REGN6331 (antibody, human IgG1, kappa, V domains shown)
VH: EVQLVESGGGLVQPGGSLRLSCAASGFTFTSTGISWVRQAPGKGLEWVGRIYPTSGSTNYADSVKGRFTISADTSKNTAYLQMNSLRAEDTAVYYCARTYGIYDLYVDYTEYVMDYWGQGTLVTVSS
VL: DIQMTQSPSSLSASVGDRVTITCRASQDVDTSLAWYKQKPGKAPKLLIYSASFLYSGVPSRFSGSGSGTDFTLTISSLQPEDFATYYCQQSTGHPQTFGQGTKVEIKR
notes: hIgG1 comparator; also called COMP6331; anti-FGFR3-hIgG1 comparator
IC50 [M], BaF3 proliferation (CellTiter-Glo) with 1 nM FGF1 + 5 ug/ml heparin [1]: 5.79e-11 M
Max Blocking (%), BaF3 proliferation (CellTiter-Glo) with 1 nM FGF1 + 5 ug/ml heparin [1]: 97.6%
90 nM hFGFR3b.mmH Bind (RU) [2]: 58.4 RU
Kd [2]: 0.697 nM
t½ [2]: 18.8 min
90 nM hFGFR3c.mmH Bind (RU) [3]: 39.6 RU
Kd [3]: 2.42 nM
t½ [3]: 8.77 min
IC50 (hFGFR3c-hFc [4]): 8.9 nM
% Blocking at 200 nM mAb [5]: 99%
IC50 [5]: 1.5 nM
IC50 (hFGFR3c-hFc [6]): 0.1 nM

B2: H4H30117P2 (antibody, human IgG4 S228P, kappa, V domains shown)
VH: QVQLVQSGAEVKKPGSSVKVSCKASGDTFSNYVIGWVRQAPGQGLEWMGGIIPIFGTTNYAQQFQGRVTITTDESTSTAYMELSSLRSEDTAVYYCARDGNYGDYFDYWGQGTLVTVSS
VL: not shown
90 nM hFGFR3b.mmH Bind (RU) [2]: 178 RU
koff [2]: 0.0063 s⁻¹
kon [2]: 656000 M⁻¹ s⁻¹
t½ [2]: 1.8 min
90 nM mfFGFR3b.mmH Bind (RU) [7]: 148 RU
Kd [7]: 15.8 nM
koff [7]: 0.0087 s⁻¹
kon [7]: 550000 M⁻¹ s⁻¹
t½ [7]: 1.3 min
binding result [8]: no binding (tested: 90 nM)
90 nM hFGFR3c.mmH Bind (RU) [3]: 166 RU
koff [3]: 0.00732 s⁻¹
kon [3]: 595000 M⁻¹ s⁻¹
t½ [3]: 1.6 min
30 nM hFGFR3b.mFc Bind (RU) [9]: 337 RU
koff [9]: 0.000133 s⁻¹
kon [9]: 787000 M⁻¹ s⁻¹
t½ [9]: 87 min
90 nM mFGFR3b.mmH Bind (RU) [10]: 0.9 RU
